In publication PMC6684607:

What was measured:
[1] = molecular target: TNF domain of Spodoptera frugiperda Eiger (SfEiger), endogenous soluble form released from Sf9 cells (Spodoptera frugiperda (endogenous in Sf9)); assay: crystal structure; X-ray, 1.7 A, space group R 3:H, one protomer in the asymmetric unit, trimer generated by the crystallographic threefold axis; crystal grown at 298 K in MORPHEUS condition 1-26
[2] = molecular target: Recombinantly expressed TNF domain of Spodoptera frugiperda Eiger (SfEiger) (Spodoptera frugiperda); assay: SEC; Superdex 200 Increase 10/300 GL; elution volume compared with a protein standard

| stoichiometry N [1] | stoichiometry N [2] | Substance |
| --- | --- | --- |
| 3 | – | TNF domain of Spodoptera frugiperda Eiger (SfEiger), endogenous soluble form released from Sf9 cells (domain or fragment) |
| – | 3 | Recombinantly expressed TNF domain of Spodoptera frugiperda Eiger (SfEiger) (domain or fragment) |
